Measured values published in the Human Domainome abundance scans (Beltran et al. 2025).
± gives the uncertainty stated by the source.

B1: F-BAR and double SH3 domains protein 1, residues 467 to 528; numbered along this chain, Q86WN1 (parent)
chain: RALPCPAHVVFRYQAGREDELTITEGEWLEVIEEGDADEWVKARNQHGEVGFVPERYLNFPD

Variants of: B1
Experiment: abundance fitness (aPCA) (normalised: wild type 0, dead -1); higher = more abundant; growth selection in yeast, the domain comes from the species named
Settings: Homo sapiens

Abundance fitness, by site and new letter:
Q14: I -0.261 ± 0.082; M -0.121 ± 0.081; L -0.208 ± 0.044; K -0.078 ± 0.079; T -0.204 ± 0.069; V -0.14 ± 0.049; N 0.013 ± 0.1; P -0.636 ± 0.11; S -0.106 ± 0.053; Y -0.241 ± 0.084; W -0.481 ± 0.11
G16: H -0.027 ± 0.091; D -0.233 ± 0.12; A 0.024 ± 0.066; R -0.064 ± 0.053; K 0.077 ± 0.074; W -0.245 ± 0.067; N 0.113 ± 0.13; S 0.019 ± 0.055; F -0.136 ± 0.083; E 0.165 ± 0.12; C 0.035 ± 0.087; T -0.012 ± 0.1; I -0.118 ± 0.093; M 0.026 ± 0.071; P -0.608 ± 0.2; Y 0.497 ± 0.18; Q 0.019 ± 0.083
D19: K -0.05 ± 0.063; F -0.006 ± 0.058; A 0.092 ± 0.061; G 0.159 ± 0.067; R -0.048 ± 0.039; M -0.12 ± 0.061; V 0.103 ± 0.056; I -0.095 ± 0.073; N -0.028 ± 0.084; Y -0.04 ± 0.076; L -0.086 ± 0.037; S 0.044 ± 0.039; Q 0.034 ± 0.079; T 0.051 ± 0.059; C 0.087 ± 0.099; W -0.426 ± 0.084; H -0.013 ± 0.11; P -0.396 ± 0.087
E27: F -0.795 ± 0.15; I -0.468 ± 0.22; W -0.911 ± 0.16; V -0.81 ± 0.15; K -0.369 ± 0.12; T -0.482 ± 0.09; Q -0.285 ± 0.088; C -0.699 ± 0.14; L -0.961 ± 0.12; Y -0.825 ± 0.29; D -0.047 ± 0.16; A -0.711 ± 0.16; M -0.653 ± 0.12; R -0.762 ± 0.099; S -1.01 ± 0.14; P -0.811 ± 0.14
L21: H -0.701 ± 0.43; Y -1 ± 0.23; S -0.517 ± 0.093; K -0.989 ± 0.35; D -0.851 ± 0.35; F -0.588 ± 0.16; V -0.456 ± 0.098; W -0.648 ± 0.11; I -0.49 ± 0.12; M -0.198 ± 0.071; C -0.951 ± 0.31; R -0.99 ± 0.13; T -1.21 ± 0.47; N -0.925 ± 0.26; G -0.87 ± 0.13; E -0.751 ± 0.18; P -0.947 ± 0.18; Q -0.927 ± 0.21
E25: R -0.328 ± 0.079; G -0.281 ± 0.1; P -0.069 ± 0.12; K 0.139 ± 0.074; C -0.325 ± 0.17; V -0.154 ± 0.12; H -0.176 ± 0.17; I -0.348 ± 0.22; Q -0.266 ± 0.24; D -0.014 ± 0.17; A -0.129 ± 0.078; W -0.373 ± 0.12; S 0.104 ± 0.11; T 0.038 ± 0.095; L -0.298 ± 0.069; M -0.297 ± 0.2; Y 0.189 ± 0.26; F -0.37 ± 0.16
T22: Y -0.844 ± 0.22; C -0.265 ± 0.14; P -0.704 ± 0.1; I -0.847 ± 0.16; F -0.742 ± 0.12; H -0.494 ± 0.16; E -0.5 ± 0.11; K -0.686 ± 0.13; M -0.652 ± 0.088; D -0.117 ± 0.097; V -0.898 ± 0.1; A -0.2 ± 0.054; S 0.069 ± 0.051; Q -0.581 ± 0.12; N 0.09 ± 0.13; L -0.778 ± 0.065
E20: C -0.103 ± 0.079; M -0.475 ± 0.083; H -0.138 ± 0.13; D -0.306 ± 0.11; R -0.35 ± 0.053; T -0.286 ± 0.097; L -0.769 ± 0.072; Y -0.548 ± 0.17; I -0.746 ± 0.18; P -1.01 ± 0.17; S -0.385 ± 0.061; N -0.39 ± 0.3; G -0.179 ± 0.062; V -0.626 ± 0.097; A -0.205 ± 0.064; F -0.284 ± 0.078; K -0.809 ± 0.17; W -0.934 ± 0.14
G26: W -0.474 ± 0.11; M -0.701 ± 0.11; H -0.389 ± 0.16; Y -0.564 ± 0.13; R -0.558 ± 0.07; F -0.871 ± 0.2; T -0.871 ± 0.2; Q -0.34 ± 0.13; P -0.776 ± 0.1; D -0.047 ± 0.087; V -0.942 ± 0.15; A -0.501 ± 0.078; L -0.741 ± 0.092; N -0.195 ± 0.15
A15: P -0.374 ± 0.078; R -0.178 ± 0.043; E -0.438 ± 0.12; S -0.146 ± 0.052; Q -0.27 ± 0.062; Y -0.875 ± 0.25; T -0.714 ± 0.13; M -0.79 ± 0.16; H -0.891 ± 0.33; F -0.956 ± 0.37; G -0.088 ± 0.05; L -0.718 ± 0.085; V -0.585 ± 0.093; K -0.125 ± 0.092; C -0.536 ± 0.097; D -0.661 ± 0.45
W28: E -0.081 ± 0.14; D -0.046 ± 0.1; Q 0.026 ± 0.063; R 0.039 ± 0.041; M -0.024 ± 0.057; K -0.004 ± 0.1; G -0.217 ± 0.058; V 0.107 ± 0.071; T -0.053 ± 0.081; P -0.113 ± 0.089; H 0.01 ± 0.1; I 0.026 ± 0.086; S -0.014 ± 0.054; F 0.134 ± 0.086
I32: W -0.276 ± 0.07; A -0.84 ± 0.1; E -0.487 ± 0.078; C -0.557 ± 0.15; V -0.07 ± 0.041; T -0.256 ± 0.067; G -0.674 ± 0.09; L -0.059 ± 0.051; M -0.162 ± 0.055; K -0.948 ± 0.24; Q -0.307 ± 0.091; Y -0.063 ± 0.088; P -0.726 ± 0.11; S -0.863 ± 0.12; D -0.73 ± 0.15; F 0.018 ± 0.063
L29: K -1.06 ± 0.26; T -0.782 ± 0.15; F -1.03 ± 0.33; N -0.577 ± 0.17; M -0.508 ± 0.13; D -0.642 ± 0.25; H -0.6 ± 0.33; G -0.975 ± 0.18; C -0.819 ± 0.24; W -1.01 ± 0.21; I -0.004 ± 0.14; R -0.728 ± 0.08; S -0.491 ± 0.096; A -0.7 ± 0.12; P -0.688 ± 0.11; V 0.102 ± 0.054
E33: I -0.785 ± 0.21; Q 0.051 ± 0.11; Y -0.56 ± 0.12; D -0.156 ± 0.16; T -0.305 ± 0.071; V -0.587 ± 0.086; M -0.266 ± 0.13; W -0.629 ± 0.16; A -0.048 ± 0.07; G 0.071 ± 0.078; N -0.183 ± 0.095; H -0.193 ± 0.077; K -0.344 ± 0.15; S 0.063 ± 0.048; C -0.05 ± 0.09; F -0.725 ± 0.12
I23: C -0.228 ± 0.076; A -0.705 ± 0.085; F -0.791 ± 0.1; K -0.718 ± 0.097; W -0.572 ± 0.1; Y -0.958 ± 0.17; M -0.269 ± 0.045; E -0.833 ± 0.13; N -1.18 ± 0.36; D -0.739 ± 0.19; R -0.751 ± 0.069; T -0.227 ± 0.076; Q -0.936 ± 0.13; V -0.014 ± 0.045; S -0.719 ± 0.064; G -0.588 ± 0.098
V31: D -0.992 ± 0.32; S -0.683 ± 0.091; K -0.797 ± 0.14; H -0.709 ± 0.15; W -0.837 ± 0.11; G -0.888 ± 0.087; Q -1.03 ± 0.34; T -0.778 ± 0.14; F -0.991 ± 0.19; P -0.969 ± 0.19; N -0.947 ± 0.23; Y -0.431 ± 0.22; L -0.454 ± 0.057; M -0.501 ± 0.12; R -0.743 ± 0.069; A -0.465 ± 0.075; I -0.028 ± 0.067
E30: K -0.289 ± 0.099; G -0.801 ± 0.09; P -0.753 ± 0.12; Q -0.02 ± 0.066; W -0.185 ± 0.07; S -0.125 ± 0.065; L -0.277 ± 0.055; R -0.474 ± 0.085; V -0.202 ± 0.045; Y -0.238 ± 0.099; I -0.353 ± 0.14; H -0.218 ± 0.14; D -0.177 ± 0.093; N -0.208 ± 0.087; C -0.307 ± 0.15; T -0.055 ± 0.065
T24: A -0.117 ± 0.055; Q 0.051 ± 0.082; I -0.063 ± 0.12; E 0.105 ± 0.082; F -0.247 ± 0.082; W -0.25 ± 0.076; D 0.087 ± 0.088; L -0.081 ± 0.046; Y -0.153 ± 0.096; M -0.02 ± 0.063; H 0.036 ± 0.12; K 0.042 ± 0.077; V -0.041 ± 0.053; S -0.083 ± 0.051; P -0.879 ± 0.12; G -0.231 ± 0.069; R -0.037 ± 0.059; N -0.212 ± 0.15
E18: N -0.086 ± 0.091; S -0.127 ± 0.048; T -0.013 ± 0.071; A -0.228 ± 0.073; Q 0.01 ± 0.079; C -0.076 ± 0.086; G -0.072 ± 0.047; F -0.28 ± 0.12; I -0.389 ± 0.16; D 0.082 ± 0.1; H -0.531 ± 0.34; R -0.134 ± 0.039; L -0.23 ± 0.044; M -0.245 ± 0.087; K -0.238 ± 0.086; V -0.134 ± 0.049; Y -0.233 ± 0.079; P -0.062 ± 0.067
E34: H -0.071 ± 0.12; G -0.17 ± 0.064; C 0.008 ± 0.072; D -0.409 ± 0.23; I -0.165 ± 0.11; F 0.127 ± 0.095; A 0.017 ± 0.061
R17: V -0.253 ± 0.06; C 0.064 ± 0.067; I -0.557 ± 0.14; T -0.164 ± 0.079; A -0.032 ± 0.068; E -0.02 ± 0.083; M -0.091 ± 0.074; Q -0.117 ± 0.088; L -0.375 ± 0.053; N 0.099 ± 0.13; W -0.346 ± 0.071; K 0.021 ± 0.077; P -0.797 ± 0.27; H 0.043 ± 0.11; F -0.214 ± 0.083; D -0.173 ± 0.078; S -0.016 ± 0.06; G -0.09 ± 0.052
